Reference: the supplement of paper PMC9112550, “Optimization of the antimicrobial peptide Bac7 by deep mutational scanning” (BMC Biology, 2022)

System: Escherichia coli TOP10
Experiment: shrunken log2 fold change of peptide-encoding DNA abundance (4.5 h post-induction vs induction); higher = less antimicrobial activity (less host growth inhibition)
Details: time post-induction: 4.5 h; library: site-saturation at positions 5, 18, 19, 20
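Note: peptides expressed intracellularly from a pBAD plasmid library in pooled LB shake-flask culture, induced with 0.3% L-arabinose, DNA abundance read by NGS, three biological replicates, DESeq2 with apeglm shrinkage.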

Sequence | shrunken log2 fold change
RRIRFRPPRLPRPRPRPEATPRP | 0.565
RRIRFRPPRLPRPRPRPEDEPRP | 0.0432
RRIRFRPPRLPRPRPRPEEDPRP | -0.185
RRIRFRPPRLPRPRPRPEGWPRP | 0.807
RRIRFRPPRLPRPRPRPEGYPRP | 0.0525
RRIRFRPPRLPRPRPRPEIIPRP | -0.0938
RRIRFRPPRLPRPRPRPEKCPRP | 0.00859
RRIRFRPPRLPRPRPRPEKFPRP | 0.012
RRIRFRPPRLPRPRPRPEKGPRP | 0.0184
RRIRFRPPRLPRPRPRPEKHPRP | 0.176
RRIRFRPPRLPRPRPRPELRPRP | -0.0629
RRIRFRPPRLPRPRPRPENKPRP | -0.422
RRIRFRPPRLPRPRPRPEQLPRP | 0.178
RRIRFRPPRLPRPRPRPEQQPRP | 0.171
RRIRFRPPRLPRPRPRPEQWPRP | -0.156
RRIRFRPPRLPRPRPRPERVPRP | 0.094
RRIRFRPPRLPRPRPRPERWPRP | 0.462
RRIRFRPPRLPRPRPRPESMPRP | -0.188
RRIRFRPPRLPRPRPRPESPPRP | 0.00789
RRIRFRPPRLPRPRPRPETRPRP | 0.159
RRIRFRPPRLPRPRPRPETSPRP | 0.0493
RRIRFRPPRLPRPRPRPETVPRP | 0.0039
RRIRFRPPRLPRPRPRPEVNPRP | 0.0557
RRIRFRPPRLPRPRPRPEVQPRP | 0.00737
RRIRFRPPRLPRPRPRPEWCPRP | 0.0522

Sequence | shrunken log2 fold change
RRIRFRPPRLPRPRPRPEWDPRP | 0.168
RRIRFRPPRLPRPRPRPFANPRP | -0.124
RRIRFRPPRLPRPRPRPFAPPRP | 0.0349
RRIRFRPPRLPRPRPRPFCCPRP | -0.225
RRIRFRPPRLPRPRPRPFCDPRP | -0.352
RRIRFRPPRLPRPRPRPFCHPRP | -0.433
RRIRFRPPRLPRPRPRPFCNPRP | -0.196
RRIRFRPPRLPRPRPRPFCPPRP | -0.386
RRIRFRPPRLPRPRPRPFDWPRP | 0.109
RRIRFRPPRLPRPRPRPFEGPRP | 0.0456
RRIRFRPPRLPRPRPRPFHQPRP | -0.192
RRIRFRPPRLPRPRPRPFIDPRP | -0.389
RRIRFRPPRLPRPRPRPFIKPRP | -0.648
RRIRFRPPRLPRPRPRPFIQPRP | -0.707
RRIRFRPPRLPRPRPRPFKIPRP | -0.049
RRIRFRPPRLPRPRPRPFKSPRP | 0.0901
RRIRFRPPRLPRPRPRPFLIPRP | -0.304
RRIRFRPPRLPRPRPRPFMKPRP | 1.71
RRIRFRPPRLPRPRPRPFMLPRP | -0.66
RRIRFRPPRLPRPRPRPFMQPRP | -0.675
RRIRFRPPRLPRPRPRPFNCPRP | -0.113
RRIRFRPPRLPRPRPRPFPEPRP | -0.363
RRIRFRPPRLPRPRPRPFQCPRP | -0.0784
RRIRFRPPRLPRPRPRPFQSPRP | -0.00947
RRIRFRPPRLPRPRPRPFRDPRP | -0.276

Sequence | shrunken log2 fold change
RRIRFRPPRLPRPRPRPFRFPRP | -0.129
RRIRFRPPRLPRPRPRPFSCPRP | -0.599
RRIRFRPPRLPRPRPRPFSMPRP | -0.232
RRIRFRPPRLPRPRPRPFTDPRP | -0.0297
RRIRFRPPRLPRPRPRPFTKPRP | -0.411
RRIRFRPPRLPRPRPRPFTTPRP | -0.445
RRIRFRPPRLPRPRPRPFVKPRP | -0.457
RRIRFRPPRLPRPRPRPFVNPRP | -1.51
RRIRFRPPRLPRPRPRPFYDPRP | -0.0631
RRIRFRPPRLPRPRPRPFYIPRP | -0.489
RRIRFRPPRLPRPRPRPGCCPRP | 0.258
RRIRFRPPRLPRPRPRPGCNPRP | -0.292
RRIRFRPPRLPRPRPRPGELPRP | 0.245
RRIRFRPPRLPRPRPRPGHMPRP | -0.0911
RRIRFRPPRLPRPRPRPGHTPRP | -0.445
RRIRFRPPRLPRPRPRPGIWPRP | 0.125
RRIRFRPPRLPRPRPRPGMGPRP | 0.102
RRIRFRPPRLPRPRPRPGNDPRP | -0.512
RRIRFRPPRLPRPRPRPGPFPRP | 0.14
RRIRFRPPRLPRPRPRPGPSPRP | 0.764
RRIRFRPPRLPRPRPRPGQCPRP | -0.114
RRIRFRPPRLPRPRPRPGQMPRP | 0.172
RRIRFRPPRLPRPRPRPGWCPRP | 0.109
RRIRFRPPRLPRPRPRPGWGPRP | 0.076
RRIRFRPPRLPRPRPRPGWSPRP | 0.114
